Experiment [1] concerns the target SlPYL1 E151D (tomato (Solanum lycopersicum)). Kind of experiment: SEC; Superdex 30 Increase 3.2/300 column as printed; 50 ul with 60, 6 or 0.6 ug protein (48 to 0.48 uM injected); 30 mM Tris-HCl pH 7.5, 150 mM NaCl, 1 mM DTT; apo form, no ABA; refractive index detection. On the technique in general: Size exclusion chromatography separates by hydrodynamic size, large species first.

Experiment [2] addresses SlPYL1 wild type (tomato dimeric abscisic acid receptor PYL1) (tomato (Solanum lycopersicum)). The experiment is described as above.

By stoichiometry N is commonly meant the number of molecules, sites or subunits per partner or assembly. Regarding SlPYL1 E151D (receptor), the stoichiometry N in experiment [1] was 2.

In turn, “SlPYL1 wild type (tomato dimeric abscisic acid receptor PYL1)” showed a stoichiometry N in experiment [2] of 2.

The values above are taken from publication PMC9207482.
